Assay results reported in patent US20240368263A1 (PROMETHEUS BIOSCIENCES, published 2024).

What was measured:
[1] = molecular target: T1, human TL1A (Fitzgerald, Prod. #30R-AT070) (human, UniProt O95150 72-251, limits assumed, biotinylated with EZ-Link Sulfo-NHS-LC-Biotin where used as soluble antigen); assay: capture lift hit at 15 pM b-TL1A, unmutated sequence
T1 construct: also called TNFSF15; biotinylated human TL1A
T1 sequence (looked up): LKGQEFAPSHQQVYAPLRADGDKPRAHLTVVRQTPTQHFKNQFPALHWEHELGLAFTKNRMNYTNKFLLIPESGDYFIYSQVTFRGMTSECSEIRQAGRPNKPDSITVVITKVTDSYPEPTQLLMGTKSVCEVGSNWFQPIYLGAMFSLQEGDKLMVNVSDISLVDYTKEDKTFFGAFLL

[2] = molecular target: T2, membrane-associated human TL1A on transfected HEK293 cells (human, UniProt O95150 1-251); assay: flow cytometry, HEK293 cells transfected with human TL1A
T2 construct: whole, on cells
T2 sequence (looked up): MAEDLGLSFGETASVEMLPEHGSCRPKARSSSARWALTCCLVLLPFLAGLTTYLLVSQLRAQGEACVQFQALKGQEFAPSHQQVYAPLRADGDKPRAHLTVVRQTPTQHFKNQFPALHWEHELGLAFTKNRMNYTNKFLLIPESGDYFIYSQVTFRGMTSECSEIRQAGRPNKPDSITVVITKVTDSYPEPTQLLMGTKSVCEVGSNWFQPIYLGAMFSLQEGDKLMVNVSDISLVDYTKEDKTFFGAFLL
Method: All the Fab variants were tested for binding to membrane-associated human TL1A. For these studies a HEK293 cell line that had been transfected with human TL1A was used. The 293 cells expressing membrane bound human TL1A were maintained in DMEM containing L-glutamine, glucose, sodium pyruvate, and phenol red (ThermoFisher cat #11995-065) plus 10% fetal bovine serum, 1X penicillin-streptomycin (Fisher cat #15140122) and 2 μg/ml puromycin (Gibco cat #A11138-03) in a 37° C. incubator with 5% CO2. Three days prior to the assay, a T-75 flask was seeded with 3×10⁶ cells so that the flask was 90-95% confluent on the day of the assay. The media was aspirated and the cell monolayer was gently washed with 5 ml PBS. Adherent cells were removed by repeatedly pipetting 10 ml ice cold 1% BSA/PBS against the monolayer. The cells were counted and 5×10⁵ were aliquoted for each sample to be analyzed. The cells were collected by centrifuging at 300× g at 4° C. for 5 minutes and the wash was discarded. The cells were resuspended in 100 μl Fab or IgG diluted in 1% BSA/PBS and placed on ice for 30 min. Next, the cells were washed with 1 ml 1% BSA/PBS and collected by centrifuging at 300× g at 4° C. for 5 min. The wash was discarded and 100 μl secondary goat F (ab′) 2 anti-human kappa FITC (Southern Biotech cat #2062-02) or goat F (ab′) 2 anti-human IgG PE (Southern Biotech cat #2043-09) conjugate, diluted 1:200 in BSA/PBS was added. Cells were placed on ice for 30 min. Finally, the cells were washed with 1 ml BSA/PBS, collected by centrifuging at 300× g at 4° C. for 5 min. The wash was removed and the cells were resuspended in 500 μl 1% BSA/PBS. One drop of Sytox AADvanced ReadyFlow Reagent (ThermoFisher cat #R37173) was added per sample and the samples were analyzed on the Attune NXT Flow Cytometer (ThermoFisher).

[3] = molecular target: LIGHT/TNFSF14 (R&D Systems, cat. no. 664-LI/CF) (UniProt O43557 74-240); assay: ELISA, antigen coated at 1 µg/ml, Fab titrated
Sequence of LIGHT/TNFSF14 (R&D Systems, cat. no. 664-LI/CF) (O43557 74-240 limits assumed): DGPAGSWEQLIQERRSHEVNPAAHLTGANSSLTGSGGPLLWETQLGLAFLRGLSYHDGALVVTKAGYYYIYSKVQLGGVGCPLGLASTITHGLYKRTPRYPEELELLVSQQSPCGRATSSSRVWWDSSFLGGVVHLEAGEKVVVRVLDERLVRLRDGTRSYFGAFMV

[4] = molecular target: T3, Fas/TNFSF6 (R&D Systems, cat. no. 126-FL/CF) (UniProt P48023 134-281); assay: ELISA, antigen coated at 1 µg/ml, Fab titrated
T3 sequence (looked up): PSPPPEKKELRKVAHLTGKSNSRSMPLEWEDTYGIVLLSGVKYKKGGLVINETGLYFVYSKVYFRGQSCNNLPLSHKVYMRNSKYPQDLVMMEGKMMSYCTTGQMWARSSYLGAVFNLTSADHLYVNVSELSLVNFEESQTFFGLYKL

[5] = molecular target: TRAIL/TNFSF10 (R&D Systems, cat. no. 375-TL/CF) (UniProt P50591 114-281); assay: ELISA, antigen coated at 1 µg/ml, Fab titrated
Sequence of TRAIL/TNFSF10 (R&D Systems, cat. no. 375-TL/CF) (P50591 114-281 limits assumed): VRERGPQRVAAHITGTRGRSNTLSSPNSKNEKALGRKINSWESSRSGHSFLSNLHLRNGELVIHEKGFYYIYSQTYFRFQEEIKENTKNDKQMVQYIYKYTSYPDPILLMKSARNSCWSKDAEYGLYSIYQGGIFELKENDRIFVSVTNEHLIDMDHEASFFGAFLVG

binding result [1]: binds
binding result [2]: binds
binding result [3]: no binding
binding result [4]: no binding
binding result [5]: no binding
B1: Clone L8mod Fab (Fab, V domains shown)
VH: QVQLVQSGAEVKKPGASVKVSCKASGFDIQDTYMHWVRQAPGQGLEWMGRIDPASGHTKYDPKFQGRATITTDTSASTAYLQLSSLRSEDTAVYYCARSGGLPDVWGQGTTVTVSS
VL: EIVLTQSPGTLSLSPGERATLSCRASSSVSYMYWYQQKPGQAPRLLIYATSNLASGIPDRFSGSGSGTDFTLTISRLEPEDFAVYYCQQWSGNPRTFGGGTKLEIK
notes: Fab
